# Experimental data as given in patent publication US20250129141A1 (BEIJING WISDOMAB BIOTECHNOLOGY, published 2025).
# Target: recombinant protein of C-terminal domain of tetanus toxin heavy chain with C-terminal His tag (TT-Hc-His) (Clostridium tetani, UniProt P04958 865-1315)
Binder,Kd [nM],koff [s⁻¹]
"S22E2-h1-IgG1 (antibody, V domains shown) VH: QVTLKESGPVLVKPTETLTLTCTVSGFSLTDYGVNWIRQPPGKALEWLGMIWSDGTTDYSSALKSRLTISKDTSKSQVVLTMTNMDPVDTATYYCARVDGYSHYYAMDYWGQGTLVTVSS VL: DIQMTQSPSSLSASVGDRVTITCRASENIYSYLAWYQQKQGKAPQLLIYNAKTLAEGVSSRFSGSGSGTQFTLTISSLQPEDFATYYCQHHYGLPFTFGQGTKLEIK",0.573,–
"S24B8-h1-IgG1 (antibody, V domains shown) VH: QVQLVQSGAEVKKPGSSVKVSCKASGYTFTSYWIYWVRQAPGQGLEWIGEINPTNGFANYNEKFKTKATITVDKSTSTAYMELSSLRSEDTAVYYCAIHFRFPYWGQGTMVTVSS VL: DIQMTQSPSSLSASVGDRVTITCRASQDIGSSLTWLQQKPGKAPKRLIYATSSLDSGVPSRFSGSGSGTDYTLTISSLQPEDFATYYCLQYASSPYTFGQGTKLEIK",–,< 1e-05
"S24B8-h3-IgG1 (antibody, V domains shown) VH: QVQLVQSGAEVKKPGSSVKVSCKASGYTFTSYWIYWVRQAPGQGLEWIGEINPTNAFANYNEKFKTKATITVDKSTSTAYMELSSLRSEDTAVYYCAIHFRFPYWGQGTMVTVSS VL: DIQMTQSPSSLSASVGDRVTITCRASQDIGSSLTWLQQKPGKAPKRLIYATSSLDSGVPSRFSGSGSGTDYTLTISSLQPEDFATYYCLQYASSPYTFGQGTKLEIK",0.164,–
"S24B8-h2-IgG1 (antibody, V domains shown) VH: QVQLVQSGAEVKKPGSSVKVSCKASGYTFTSYWIYWVRQAPGQGLEWIGEINPTAGFANYNEKFKTKATITVDKSTSTAYMELSSLRSEDTAVYYCAIHFRFPYWGQGTMVTVSS VL: DIQMTQSPSSLSASVGDRVTITCRASQDIGSSLTWLQQKPGKAPKRLIYATSSLDSGVPSRFSGSGSGTDYTLTISSLQPEDFATYYCLQYASSPYTFGQGTKLEIK",0.385,–
